Assay results reported in US20130034568A1 (UNIVERSITY OF LOUISVILLE RESEARCH FOUNDATION, published 2013).

B1: C5a receptor (C5aR; CD88), mouse, on peritoneal macrophages (receptor, UniProt P30993 1-351, looked up)
chain: MDPIDNSSFEINYDHYGTMDPNIPADGIHLPKRQPGDVAALIIYSVVFLVGVPGNALVVWVTAFEARRAVNAIWFLNLAVADLLSCLALPVLFTTVLNHNYWYFDATACIVLPSLILLNMYASILLLATISADRFLLVFKPIWCQKVRGTGLAWMACGVAWVLALLLTIPSFVYREAYKDFYSEHTVCGINYGGGSFPKEKAVAILRLMVGFVLPLLTLNICYTFLLLRTWSRKATRSTKTLKVVMAVVICFFIFWLPYQVTGVMIAWLPPSSPTLKRVEKLNSLCVSLAYINCCVNPIIYVMAGQGFHGRLLRSLPSIIRNALSEDSVGRDSKTFTPSTTDTSTRKSQAV
notes: whole, on cells; In FRET it was detected with a dye-labelled mouse-specific monoclonal antibody (clone 20/70); also called complement C5a receptor

What was measured:
[1] = molecular target: C5a receptor (C5aR; CD88), mouse, on peritoneal macrophages (mouse) (UniProt P30993); experiment: cell-based or functional assay
[2] = molecular target: T1, CXC-chemokine receptor 4 (CXCR4), mouse, on peritoneal macrophages (mouse, UniProt P70658 1-359); experiment: FRET, acceptor photobleaching, labelled antibodies on P. gingivalis-challenged mouse macrophages
T1 construct: whole, on cells
T1 sequence (P70658 whole entry): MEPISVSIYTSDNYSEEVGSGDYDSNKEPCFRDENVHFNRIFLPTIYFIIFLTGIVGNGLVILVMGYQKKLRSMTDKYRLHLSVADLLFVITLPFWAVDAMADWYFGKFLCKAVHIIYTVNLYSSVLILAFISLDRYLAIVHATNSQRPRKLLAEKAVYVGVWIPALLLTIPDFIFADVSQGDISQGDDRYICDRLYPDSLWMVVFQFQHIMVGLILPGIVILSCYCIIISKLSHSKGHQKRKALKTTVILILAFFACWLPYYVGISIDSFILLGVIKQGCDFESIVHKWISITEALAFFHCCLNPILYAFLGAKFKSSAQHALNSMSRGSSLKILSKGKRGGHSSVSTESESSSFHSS
Experimental: (§1) Upon stimulation for 10 min at 37° C. with P. gingivalis, mouse macrophages were labeled with a mixture of Cy3-conjugated (donor) and Cy5-conjugated (acceptor) antibodies, as indicated in FIG. 4I. In additional experiments shown in FIG. 4I, FITC-labeled P. gingivalis was used as donor and TRITC-labeled receptors served as acceptors. The cells were washed and fixed, and energy transfer between various donor-acceptor pairs was calculated from the increase in donor fluorescence after acceptor photobleaching (REF 9, 14). […] The conjugation of antibodies to Cy3 or Cy5 was performed using kits from Amersham Biosciences.

[3] = molecular target: T2, TLR5, mouse, on peritoneal macrophages (mouse, UniProt Q9JLF7 27-859); experiment: FRET, acceptor photobleaching, labelled antibodies on P. gingivalis-stimulated mouse macrophages
T2 construct: whole, on cells; Negative control in FRET; detected with antibody clone 85B152.5; also called Toll-like receptor 5
T2 sequence (Q9JLF7 27-859): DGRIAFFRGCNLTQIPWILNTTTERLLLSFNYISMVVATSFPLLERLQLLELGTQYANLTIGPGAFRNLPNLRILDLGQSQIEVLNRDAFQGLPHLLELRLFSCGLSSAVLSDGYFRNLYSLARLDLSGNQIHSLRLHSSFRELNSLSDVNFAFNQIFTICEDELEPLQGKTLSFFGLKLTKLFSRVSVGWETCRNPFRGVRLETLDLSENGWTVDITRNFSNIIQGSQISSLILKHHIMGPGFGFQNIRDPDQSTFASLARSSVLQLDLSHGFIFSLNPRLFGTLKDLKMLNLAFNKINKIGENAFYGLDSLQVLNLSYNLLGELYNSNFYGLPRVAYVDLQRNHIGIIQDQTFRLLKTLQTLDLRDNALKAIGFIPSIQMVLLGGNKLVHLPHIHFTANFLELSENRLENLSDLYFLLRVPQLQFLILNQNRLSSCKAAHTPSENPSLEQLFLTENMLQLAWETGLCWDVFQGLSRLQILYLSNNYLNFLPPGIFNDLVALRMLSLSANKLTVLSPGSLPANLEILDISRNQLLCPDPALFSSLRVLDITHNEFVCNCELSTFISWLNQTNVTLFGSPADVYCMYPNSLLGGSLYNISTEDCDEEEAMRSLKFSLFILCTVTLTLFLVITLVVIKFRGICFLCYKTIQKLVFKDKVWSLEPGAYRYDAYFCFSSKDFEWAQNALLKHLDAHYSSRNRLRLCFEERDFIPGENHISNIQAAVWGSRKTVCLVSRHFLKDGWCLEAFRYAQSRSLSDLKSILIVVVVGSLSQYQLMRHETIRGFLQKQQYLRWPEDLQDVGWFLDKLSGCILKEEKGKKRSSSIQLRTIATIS
Experimental: as §1

Molecule	intracellular cAMP in P. gingivalis-stimulated mouse macrophages [1]	binding result [2]	binding result [3]
Mouse C5a (from UniProt P06684 679-755) (ligand)	> 3 fold		
B1		binds	no binding
